Measured values taken from PMC6829862, “Gγ and Gα Identity Dictate a G-Protein Heterotrimer Plasma Membrane Targeting” (Cells, 2019).

Target: T1, mCherry–Gβ1γ2 dimer (UniProt P62873 1-340; P59768 1-71, 20-carbon geranylgeranyl lipid on the cysteine of the C-terminal CaaX motif (said of Gγ2 in general))
T1 construct: Gβ1 subunit; cDNA in pcDNA3.1+ from UMR cDNA Resource Center; FP cloned at the N-terminus; Gγ2 subunit; source: HEK 293, transiently co-transfected (mCherry–Gβ1 and Gγ2), in living cells; not shown: mCherry, N-terminal, kept
Test: FRET or BRET; FLIM-FRET in living transiently transfected HEK 293 cells at 37 °C; donor Citrine in Gα, acceptor mCherry on Gβ1 with the appropriate Gγ; efficiency E = 1 − τda/τd from the short lifetime component τ1 (donor alone 2.7 ± 0.1 ns), analysed only at the plasma membrane; GppNHp added to the culture did not change the signal
Settings: partners not purified

B1: Citrine–Gαs (natural protein)
chain: MGCLGNSKTEDQRNEEKAQREANKKIEKQLQKDKQVYRATHRLLLLGAGESGKSTIVKQMRILHVNGFNGNSDGEKATKVQDIKNNLKEAIETIVAAMSNLVPPVELANPENQFRVDYILSVMNVPDFDFPPEFYEHAKALWEDEGVRACYERSNEYQLIDCAQYFLDKIDVIKQADYVPSDQDLLRCRVLTSGIFETKFQVDKVNFHMFDVGGQRDERRKWIQCFNDVTAIIFVVASSSYNMVIREDNQTNRLQEALNLFKSIWNNRWLRTISVILFLNKQDLLAEKVLAGKSKIEDYFPEFARYTTPEDATPEPGEDPRVTRAKYFIRDEFLRISTASGDGRHYCYPHFTCAVDTENIRRVFNDCRDIIQRMHLRQYELL
notes: Gαs subunit (stimulatory G-protein alpha subunit); cDNA in pcDNA3.1+ from UMR cDNA Resource Center; also called wild-type Gαs; loop-tagged Gαs; source: HEK 293, transiently transfected; in living cells (FLIM-FRET) and in cell lysate (pull-down); not shown: Citrine, internal (in place of the loop Glu71-Ser82), kept
Q: How did the FRET efficiency turn out when B1 was run?
A: Its FRET efficiency is 19.7%.
